Usually stoichiometry N stands for the number of molecules, sites or subunits per partner or assembly. As a reminder, the Kd is the constant that tells how readily two partners part at equilibrium. A higher Kd goes with lower affinity.

The chains are these.
B2: Arabidopsis COP1^349-675 WD40 domain (domain or fragment)
chain: TFTRYSRLRVIAEIRHGDIFHSANIVSSIEFDRDDELFATAGVSRCIKVFDFSSVVNEPADMQCPIVEMSTRSKLSCLSWNKHEKNHIASSDYEGIVTVWDVTTRQSLMEYEEHEKRAWSVDFSRTEPSMLVSGSDDCKVKVWCTRQEASVINIDMKANICCVKYNPGSSNYIAVGSADHHIHYYDLRNISQPLHVFSGHKKAVSYVKFLSNNELASASTDSTLRLWDVKDNLPVRTFRGHTNEKNFVGLTVNSEYLACGSETNEVYVYHKEITRPVTSHRFGSPDMDDAEEEAGSYFISAVCWKSDSPTMLTANSQGTIKVLVLAA
B3: COP1^(349-675, Lys422Ala) WD40 domain (domain or fragment)
chain: TFTRYSRLRVIAEIRHGDIFHSANIVSSIEFDRDDELFATAGVSRCIKVFDFSSVVNEPADMQCPIVEMSTRSALSCLSWNKHEKNHIASSDYEGIVTVWDVTTRQSLMEYEEHEKRAWSVDFSRTEPSMLVSGSDDCKVKVWCTRQEASVINIDMKANICCVKYNPGSSNYIAVGSADHHIHYYDLRNISQPLHVFSGHKKAVSYVKFLSNNELASASTDSTLRLWDVKDNLPVRTFRGHTNEKNFVGLTVNSEYLACGSETNEVYVYHKEITRPVTSHRFGSPDMDDAEEEAGSYFISAVCWKSDSPTMLTANSQGTIKVLVLAA
B4: recombinant light-activated full-length CRY2 (natural protein)
chain: MKMDKKTIVWFRRDLRIEDNPALAAAAHEGSVFPVFIWCPEEEGQFYPGRASRWWMKQSLAHLSQSLKALGSDLTLIKTHNTISAILDCIRVTGATKVVFNHLYDPVSLVRDHTVKEKLVERGISVQSYNGDLLYEPWEIYCEKGKPFTSFNSYWKKCLDMSIESVMLPPPWRLMPITAAAEAIWACSIEELGLENEAEKPSNALLTRAWSPGWSNADKLLNEFIEKQLIDYAKNSKKVVGNSTSLLSPYLHFGEISVRHVFQCARMKQIIWARDKNSEGEESADLFLRGIGLREYSRYICFNFPFTHEQSLLSHLRFFPWDADVDKFKAWRQGRTGYPLVDAGMRELWATGWMHNRIRVIVSSFAVKFLLLPWKWGMKYFWDTLLDADLECDILGWQYISGSIPDGHELDRLDNPALQGAKYDPEGEYIRQWLPELARLPTEWIHHPWDAPLTVLKASGVELGTNYAKPIVDIDTARELLAKAISRTREAQIMIGAAPDEIVADSFEALGANTIKEPGLCPSVSSNDQQVPSAVRYNGSKRVKPEEEEERDMKKSRGFDERELFSTAESSSSSSVFFVSQSCSLASEGKNLEGIQDSSDQITTSLGKNGCK

The target of experiment [1] is UVR8^HY5C44 chimera (recombinant) (Arabidopsis | not stated). The experiment can be described thus: SEC. Background: Size exclusion chromatography separates by hydrodynamic size, large species first.
In experiment [2] the target is B2. The experiment can be described thus: ITC. A general note: ITC needs no label: the signal is the heat of the interaction.
The target in experiment [3] is B3. In words: crystal structure.
Experiment [4] has as its target B3. In words: ITC.
The target of experiment [5] is B2. The experiment can be described thus: grating-coupled interferometry.
A further experiment deals with T1, full-length UVR8 (Arabidopsis, UniProt Q9FN03 1-440).
T1 sequence: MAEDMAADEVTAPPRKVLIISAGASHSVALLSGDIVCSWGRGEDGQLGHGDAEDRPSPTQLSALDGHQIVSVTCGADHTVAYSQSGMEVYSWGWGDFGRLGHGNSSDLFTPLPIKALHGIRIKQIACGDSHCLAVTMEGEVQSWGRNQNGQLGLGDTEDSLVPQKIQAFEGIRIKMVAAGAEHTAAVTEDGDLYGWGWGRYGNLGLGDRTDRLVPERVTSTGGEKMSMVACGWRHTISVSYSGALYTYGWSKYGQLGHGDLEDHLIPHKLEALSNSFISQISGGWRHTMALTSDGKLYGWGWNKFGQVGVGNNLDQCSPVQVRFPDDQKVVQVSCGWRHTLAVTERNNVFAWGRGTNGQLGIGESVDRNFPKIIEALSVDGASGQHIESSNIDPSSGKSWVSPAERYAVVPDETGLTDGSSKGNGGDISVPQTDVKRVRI
The experiment can be described thus: grating-coupled interferometry.

For experiment [6], the target named is B4. In words: grating-coupled interferometry.
For experiment [7], the target named is T2, UVR8^12-381 (UVR8 β-propeller core) (Arabidopsis, UniProt Q9FN03 12-381).
T2 sequence: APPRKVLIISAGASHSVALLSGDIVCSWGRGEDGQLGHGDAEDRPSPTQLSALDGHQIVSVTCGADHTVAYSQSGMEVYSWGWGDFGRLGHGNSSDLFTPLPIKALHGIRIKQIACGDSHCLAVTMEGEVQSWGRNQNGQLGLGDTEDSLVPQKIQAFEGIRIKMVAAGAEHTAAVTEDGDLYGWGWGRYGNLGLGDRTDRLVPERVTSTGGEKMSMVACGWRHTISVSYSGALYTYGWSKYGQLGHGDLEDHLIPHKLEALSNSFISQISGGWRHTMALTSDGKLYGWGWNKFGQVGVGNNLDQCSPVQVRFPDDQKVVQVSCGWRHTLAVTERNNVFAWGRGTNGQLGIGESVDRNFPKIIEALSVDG
In words: grating-coupled interferometry.

The target of experiment [8] is B2. The experiment can be described thus: crystal structure.

On to UVR8^HY5C44 chimera (recombinant), for which the stoichiometry N in [1] was found to be 2.
Consider EIRRVPEFGG [HY5^39-48 VP-peptide], for which, in experiment [2], the Kd was ~20 µM and the “fold stronger binding than UVR8^406-413” value was ~8 fold. Also, in experiment [3], the binding result is “binds”.
For RYAVVPDE [UVR8^406-413 VP-peptide], the “fold increase in affinity over wild-type COP1” value in experiment [4] is ~10 fold. The binding result in [2] is reported as “binds”.
Consider GYGIVPSF [CO^366-373 VP-peptide], for which, in experiment [4], the “fold stronger binding than to wild-type COP1” value was ~4 fold. Also, the binding result in [2] is on record as “binds”.

B1: CRY2^NC80 (CRY2^486-565) (domain or fragment)
chain: SRTREAQIMIGAAPDEIVADSFEALGANTIKEPGLCPSVSSNDQQVPSAVRYNGSKRVKPEEEEERDMKKSRGFDERELF
Regarding B1, in experiment [5], the binding result is recorded as “binds”.
For the molecule B2, the results for the Kd (in the experiment with full-length UVR8; in experiment [7]) were ~1000 nM and ~500 nM, respectively. Also, the binding result in experiment [6] was “binds”.
Take B3: in the experiment with full-length UVR8, the binding result is recorded as “binds”.
In the case of YLQIVPEI [HFR1^57-64 VP-peptide], the binding result in [8] is listed as “binds”.
Regarding NDQQVPSAV [CRY2^527-535 VP-peptide], the “fold reduced binding against wild-type COP1” value in experiment [4] was ~30 fold. Also, the binding result in experiment [2] is listed as “binds”.
ELLMVPDM [HYH^27-34 VP-peptide]: the binding result in experiment [8] is listed as “binds”.
Turning to GFGVVPSF [COL3^287-294 VP-peptide], the binding result in [4] and in experiment [8] was “binds” throughout.
As for B4, the “fold increase in affinity over the isolated CRY2 VP-peptide” value in experiment [5] is ~200 fold.
Take EHFIVPDL [STO^240-247 VP-peptide]: the binding result in [8] was “binds”.
As to EDQMVPSIT [CRY1^544-552 VP-peptide], the binding result in [4] and in experiment [8] was “binds” throughout.

B5: full-length HY5 protein (natural protein)
chain: MQEQATSSLAASSLPSSSERSSSSAPHLEIKEGIESDEEIRRVPEFGGEAVGKETSGRESGSATGQERTQATVGESQRKRGRTPAEKENKRLKRLLRNRVSAQQARERKKAYLSELENRVKDLENKNSELEERLSTLQNENQMLRHILKNTTGNKRGGGGGSNADASL
On to B5, for which, in experiment [5], the Kd was ~1000 nM.

The record behind these values is doi:10.1101/568618 (bioRxiv, 2019).
